B1: CYP82Y2 module: N-terminal CYP82Y2 module of STORR (codon optimized SEQ ID NO 32) expressed with opium poppy CPR redox partner in S. cerevisiae (protein)
chain: MELQYISYFQPTSSVVALLLALVSILSSVVVLRKTFLNNYSSSPASSTKTAVLSHQRQQSCALPISGLLHIFMNKNGLIHVTLGNMADKYGPIFSFPTGSHRTLVVSSWEMVKECFTGNNDTAFSNRPIPLAFKTIFYACGGIDSYGLSSVPYGKYWRELRKVCVHNLLSNQQLLKFRHLIISQVDTSFNKLYELCKNSEDNHGNYTTTTTTAAGMVRIDDWLAELSFNVIGRIVCGFQSGPKTGAPSRVEQFKEAINEASYFMSTSPVSDNVPMLGWIDQLTGLTRNMKHCGKKLDLVVESIINDHRQKRRFSRTKGGDEKDDEQDDFIDICLSIMEQPQLPGNNNPSQIPIKSIVLDMIGGGTDTTKLTTIWTLSLLLNNPHVLDKAKQEVDAHFRTKRRSTNDAAAAVVDFDDIRNLVYIQAIIKESMRLYPASPVVERLSGEDCVVGGFHVPAGTRLWANVWKMQRDPKVWDDPLVFRPDRFLSDEQKMVDVRGQNYELLPFGAGRRVCPGVSFSLDLMQLVLTRLILEFEMKSPSGKVDMTATPGLMSYKVIPLDILLTHRRIKPCVQSAASERD
modifications: co-expressed with poppy CPR in yeast; Yeast codon optimized CYP82Y2
B2: STORR fusion: Full length CYP82Y2-oxidoreductase fusion protein (SEQ ID NO 1; codon optimized SEQ ID NO 31) expressed with PsCPR in S. cerevisiae (protein, listed as Papaver somniferum)
chain: MELQYISYFQPTSSVVALLLALVSILSSVVVLRKTFLNNYSSSPASSTKTAVLSHQRQQSCALPISGLLHIFMNKNGLIHVTLGNMADKYGPIFSFPTGSHRTLVVSSWEMVKECFTGNNDTAFSNRPIPLAFKTIFYACGGIDSYGLSSVPYGKYWRELRKVCVHNLLSNQQLLKFRHLIISQVDTSFNKLYELCKNSEDNHGNYTTTTTTAAGMVRIDDWLAELSFNVIGRIVCGFQSGPKTGAPSRVEQFKEAINEASYFMSTSPVSDNVPMLGWIDQLTGLTRNMKHCGKKLDLVVESIINDHRQKRRFSRTKGGDEKDDEQDDFIDICLSIMEQPQLPGNNNPSQIPIKSIVLDMIGGGTDTTKLTTIWTLSLLLNNPHVLDKAKQEVDAHFRTKRRSTNDAAAAVVDFDDIRNLVYIQAIIKESMRLYPASPVVERLSGEDCVVGGFHVPAGTRLWANVWKMQRDPKVWDDPLVFRPDRFLSDEQKMVDVRGQNYELLPFGAGRRVCPGVSFSLDLMQLVLTRLILEFEMKSPSGKVDMTATPGLMSYKVIPLDILLTHRRIKPCVQSAASERDMESSGVPVITLGSGKVMPVLGMGTFEKVGKGSERERLAILKAIEVGYRYFDTAAAYETEEVLGEAIAEALQLGLVKSRDELFISSMLWCTDAHADRVLLALQNSLRNLKLEYVDLYMLPFPASLKPGKITMDIPEEDICRMDYRSVWAAMEECQNLGFTKSIGVSNFSCKKLQELMATANIPPAVNQVEMSPAFQQKKLREYCNANNILVSAISVLGSNGTPWGSNAVLGSEVLKKIAMAKGKSVAQVSMRWVYEQGASLVVKSFSEERLRENLNIFDWELTKEDHEKIGEIPQCRILSAYFLVSPNGPFKSQEELWDDEA
modifications: co-expressed with PsCPR

Assays:
[1] = Enzyme assay on soluble/microsomal preparations of S. cerevisiae expressing STORR fusion or modules, substrate 1,2-dehydroreticuline; assay type: biochemical; details: soluble or microsomal preparations from S. cerevisiae; 100 μM substrate, 1 mM NADPH, 37° C. 3 hours
Text: (§1) Genscript created synthetic DNA sequences were created for PsCPR [Genbank accession AAC05021, (Rosco A. et al. (1997) Arch. Biochem. Biophys. 348, 369-77), the full length STORR (CYP82Y2-Oxidoreductatse (“Oxired”)) protein, the N-terminal CYP82Y2 module and C-terminal oxidoreductase (Oxidoreductase) module, that were codon optimised for expression is Saccharomyces cerevisiae. The codon-optimized sequences are provided with the SEQ ID NO 30-33.
(§2) Expression vector pESC-TRP::soloxired was created by digesting the corresponding PCR product with NotI and PacI and inserting this behind the GAL10 promoter of pESC-TRP. pESC-TRP::CPR was created by digesting the corresponding PCR product with BamHI and XhoI and inserting this behind the GAL1 promoter of pESC-TRP. This was then used to created pESC-TRP::CPR::CYP82Y2 and pESC-TRP::CPR::CYP82Y2-Oxidoreductase. These plasmids were then transformed in S. cerevisiae G175 (Sorger D. et al. (2004) J. Biol. Chem. 279, 31190-6) using lithium acetate protocol (Geitz R. D. and Woods R. A. (2002) Methods in Enzymology 350, 87-96). Yeasts were cultivated in Synthetic Defined (SD) medium composed of 2% carbon source, 0.5% ammonium sulfate, 1.7 g L^−1 yeast nitrogen base (without amino acids and ammonium sulfate) and 1.92 g L^−1 or tryptophan drop-out supplement (Sigma-Aldrich, Gillingham, UK). Cultures grown using glucose as a carbon source were used to inoculate 200 ml cultures with raffinose as a carbon source to an OD 600 nm of 0.10 in 1 L conical flasks. […]
(§3) Enzymes assays were set up in 250 μL volumes containing final concentrations of 50 mM Bis-tris propane buffer, 1 mM NADPH and 100 μM of substrate. […] The extract was then dissolved in 100 μL of 50:50:0.1 hexane/ethanol/diethylamine and analysed by the chiral HPLC method to determine the relative amounts of (R)- and (S)-reticuline.
(§4) Poppy capsules were processed and analysed by UPLC-MS and R-scripts as previously described (“the standard method”; (Winzer T. et al. (2012) Science 336, 1704-8)). […]

[2] = Enzyme assay on microsomal preparations of S. cerevisiae expressing STORR fusion or modules, substrate (S)-reticuline; assay type: biochemical
Text: as §1, §2, §3, §4

Molecule | conversion efficiency of 1,2-dehydroreticuline to (R)-reticuline [1] | conversion of (S)-reticuline to 1,2-dehydroreticuline ([2]; microsomal preparations from S. cerevisiae, with CPR redox partner, 100 μM substrate, 37° C. 3 hours) [%] | accumulation of 1,2-dehydroreticuline during conversion of (S)- to (R)-reticuline ([2]; microsomal fractions harboring the fusion protein) | added (S)-reticuline converted to (R)-reticuline ([2]; microsomal preparations from S. cerevisiae, with CPR, 100 μM substrate, 37° C. 3 hours)
B1 | not | ~100 | – | –
B2 | 100% | – | no detectable accumulation | about 20%
